Test results taken from patent US20200147235A1 (AbbVie / Abbott, published 2020).

T1: Human CD98 ECD with N-terminal His-tag (human, UniProt P08195 105-529)
T1 construct: The entry includes the linker and the polyhistidine tag; also called huCD98 ECD
T1 sequence: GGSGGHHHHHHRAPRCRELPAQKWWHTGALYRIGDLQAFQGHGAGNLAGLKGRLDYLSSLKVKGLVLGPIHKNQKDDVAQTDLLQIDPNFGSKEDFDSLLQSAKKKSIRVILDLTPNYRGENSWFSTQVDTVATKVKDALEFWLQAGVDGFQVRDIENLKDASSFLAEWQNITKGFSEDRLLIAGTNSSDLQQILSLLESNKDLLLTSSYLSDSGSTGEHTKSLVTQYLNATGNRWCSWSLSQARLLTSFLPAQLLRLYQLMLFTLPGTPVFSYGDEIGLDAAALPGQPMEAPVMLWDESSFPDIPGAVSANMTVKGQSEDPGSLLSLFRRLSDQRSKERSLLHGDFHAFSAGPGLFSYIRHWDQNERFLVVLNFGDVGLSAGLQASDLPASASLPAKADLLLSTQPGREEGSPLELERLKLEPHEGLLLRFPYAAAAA

T2: Cynomolgus monkey CD98 ECD with C-terminal His-tag (SEQ ID NO: 127) (cynomolgus monkey, UniProt P08195 105-529 (human entry))
T2 construct: The entry includes the linker and the polyhistidine tag; also called cyCD98 ECD
T2 chain: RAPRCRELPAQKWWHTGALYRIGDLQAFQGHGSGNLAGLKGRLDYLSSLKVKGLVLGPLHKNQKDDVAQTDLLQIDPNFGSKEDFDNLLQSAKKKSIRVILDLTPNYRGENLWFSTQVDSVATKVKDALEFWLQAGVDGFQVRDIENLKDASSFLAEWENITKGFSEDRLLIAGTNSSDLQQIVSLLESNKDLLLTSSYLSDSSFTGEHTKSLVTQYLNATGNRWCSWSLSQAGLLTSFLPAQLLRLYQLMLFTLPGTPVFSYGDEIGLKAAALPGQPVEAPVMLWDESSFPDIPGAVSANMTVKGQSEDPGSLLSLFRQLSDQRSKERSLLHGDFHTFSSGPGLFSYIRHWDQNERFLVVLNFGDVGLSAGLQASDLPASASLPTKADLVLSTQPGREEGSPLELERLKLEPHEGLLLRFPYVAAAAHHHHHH

T3: Human CD98 ECD with C-terminal His-tag (human, UniProt P08195 105-529)
T3 construct: The entry includes the linker and the polyhistidine tag; also called huCD98 ECD
T3 sequence: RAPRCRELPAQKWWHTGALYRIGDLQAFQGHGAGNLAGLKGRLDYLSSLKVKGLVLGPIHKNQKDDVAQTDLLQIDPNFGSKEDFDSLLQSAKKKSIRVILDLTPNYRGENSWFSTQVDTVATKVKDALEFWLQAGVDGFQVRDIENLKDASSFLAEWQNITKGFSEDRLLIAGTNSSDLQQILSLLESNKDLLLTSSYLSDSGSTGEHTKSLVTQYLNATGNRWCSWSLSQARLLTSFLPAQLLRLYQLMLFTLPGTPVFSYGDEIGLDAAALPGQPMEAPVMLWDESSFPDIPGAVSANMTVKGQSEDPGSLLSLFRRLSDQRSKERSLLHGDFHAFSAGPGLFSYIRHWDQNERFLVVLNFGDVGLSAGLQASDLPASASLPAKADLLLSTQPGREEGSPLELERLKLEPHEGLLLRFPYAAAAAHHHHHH

T4: Cynomolgus monkey CD98 ECD with C-terminal His-tag (cynomolgus monkey, UniProt P08195 105-529 (human entry))
T4 construct: The entry includes the linker and the polyhistidine tag; also called cyCD98 ECD
T4 chain: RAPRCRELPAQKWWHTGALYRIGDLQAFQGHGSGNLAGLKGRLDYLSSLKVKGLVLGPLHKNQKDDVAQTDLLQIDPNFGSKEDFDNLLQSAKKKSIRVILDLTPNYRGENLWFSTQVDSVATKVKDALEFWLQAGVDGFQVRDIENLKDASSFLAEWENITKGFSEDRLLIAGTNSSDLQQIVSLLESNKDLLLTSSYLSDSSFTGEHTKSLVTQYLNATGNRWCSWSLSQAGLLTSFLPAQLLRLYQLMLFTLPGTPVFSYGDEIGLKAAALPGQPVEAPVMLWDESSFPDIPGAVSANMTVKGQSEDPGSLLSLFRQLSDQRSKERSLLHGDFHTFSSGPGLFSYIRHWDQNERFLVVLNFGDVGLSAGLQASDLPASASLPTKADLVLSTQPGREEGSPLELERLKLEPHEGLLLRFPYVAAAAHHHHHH


Experiments:
[1] = target: T1, Human CD98 ECD with N-terminal His-tag; experiment: SPR (Biacore), recombinant CD98 ECD
[2] = target: T2, Cynomolgus monkey CD98 ECD with …; experiment: SPR (Biacore), recombinant CD98 ECD
[3] = target: T3, Human CD98 ECD with C-terminal His-tag; experiment: SPR (Biacore), antibody captured on anti-Fc surface, CD98 ECD in solution
Method: (§1) The binding kinetics of these purified mouse and rat monoclonal anti-CD98 antibodies for purified recombinant CD98 protein (extracellular domain. ECD) were determined by surface plasmon resonance-based measurements made on Biacore T100/T200 instruments (GE Healthcare, Piscataway, N.J.) at 25° C. using an anti-Fc capture assay approach. Binding kinetic measurements were made in the assay buffer HBS-EP+: 10 mM Hepes, pH 7.4, 150 mM NaCl, 3 mM EDTA, 0.05% Tween 20). For example, approximately 8000 RU of anti-Fc (species specific) polyclonal antibody (Thermo Fisher Scientific Inc. Rockford, Ill.) diluted in 10 mM sodium acetate (pH 4.5) was directly immobilized across a CM5 research grade biosensor chip using a standard amine coupling kit according to manufacturer's instructions and procedures at 25 μg/ml. Unreacted moieties on the biosensor surface were blocked with ethanolamine. The test antibody to be captured as a ligand was diluted in running buffer to ˜0.5 μg/mL and injected over anti-Fc surface at a flow rate of 10 μL/min, CD98 binding and dissociation were observed under a continuous flow rate of 80 μL/min. Human and cynomolgus monkey CD98 ECDs, both with a C-terminal His-tag, are used for this study (Table 3). After each cycle the anti-Fc capture surface was regenerated using 10 mM Glycine-HCl, pH 1.5. During the assay, all measurements were referenced against the capture surface alone (i.e., with no captured test antibody) and buffer-only injections (no antigen) were used for double referencing. For kinetic analysis, rate equations derived from the 1:1 Langmuir binding model were fitted simultaneously, globally and with mass transfer term included to multiple referenced antigen binding curves using Biacore T100T200 Evaluation software.
(§2) The binding kinetics of the recombinant anti-CD98 chimeric antibodies for purified recombinant CD98 protein (extracellular domain, ECD) were determined by surface plasmon resonance-based measurements, as described in the Example 4.

[4] = target: T4, Cynomolgus monkey CD98 ECD with …; experiment: as above
Method: as §1, §2

Binder	Kd [1]	koff [1]	kon [1]	Kd [2]	koff [2]	kon [2]	Kd [3]	koff [3]	kon [3]	Kd [4]	koff [4]	kon [4]
huAb106 (antibody, V domains shown, Framework re-engineered humanized clone (parent huAb15v1), expressed as full-length IgG) VH: EVQLVQSGAEVKKPGASVKVSCKASGFTFSDYTMAWVRQAPGQGLEWVATIIYSGRGTYYRDAVKGRFTITRDNSTSTLYLELSSLRSEDTAVYYCARQSDHTYYYWGYFDYWGQGTMVTVSS VL: DIVMTQTPLSLPVTPGEPASINCKSSQSLLFSGNQKNYLAWYLQKPGQSPQLLIYWASTRQSGVPDRFSGSGSGTDFTLKISRVEAEDVGIYYCQQYYDVPYTFGQGTKLEIK	0.16 nM	2.2e-05 s⁻¹	140000 M⁻¹ s⁻¹	2.2 nM	9.5e-05 s⁻¹	43000 M⁻¹ s⁻¹						
huAb108 (antibody, human IgG1, kappa, L234A L235A, V domains shown, Framework re-engineered humanized clone (parent huAb15v2); also called CL-huAb108) VH: EVQLVQSGAEVKKPGASVKVSCKASGFTFSDYTMAWVRQAPGQGLEWVATIIYSGRGTYYRDAVKGRFTITRDNSTSTLYLELSSLRSEDTAVYYCARQSDDTYYYWGYFDYWGQGTMVTVSS VL: DIVMTQTPLSLPVTPGEPASINCKSSQSLLFSGNQKNYLAWYLQKPGQSPQLLIYWASTRQSGVPDRFSGSGSGTDFTLKISRVEAEDVGIYYCQQYYDVPYTFGQGTKLEIKR	0.55 nM	4.1e-05 s⁻¹	75000 M⁻¹ s⁻¹	4.6 nM	0.00014 s⁻¹	29000 M⁻¹ s⁻¹						
huAb110 (antibody, human IgG1, kappa, L234A L235A, V domains shown, Framework re-engineered humanized clone (parent huAb15v6); also called CL-huAb110) VH: EVQLVQSGAEVKKPGASVKVSCKASGFTFSDYTMAWVRQAPGQGLEWVATIIYDARGTYYRDAVKGRFTITRDNSTSTLYLELSSLRSEDTAVYYCARQSDDTYYYWGYFDYWGQGTMVTVSS VL: DIVMTQTPLSLPVTPGEPASINCKSSQSLLFSGNQKNYLAWYLQKPGQSPQLLIYWASTRQSGVPDRFSGSGSGTDFTLKISRVEAEDVGIYYCQQYYSSPYTFGQGTKLEIKR	2.3 nM	0.0003 s⁻¹	130000 M⁻¹ s⁻¹	23 nM	0.00051 s⁻¹	23000 M⁻¹ s⁻¹						
huAb3v1 (antibody, V domains shown, Humanized, further engineered clone of chAb3, converted to IgG and expressed as a full-length antibody) VH: EVQLVESGGGLVQPGRSLRLSCTTSGFTFIDYYMSWVRQAPGKGLEWLGFIRNKANRYTTEYSASVKGRFTISRDNSKSILYLQMNSLKTEDTAVYYCTRDRPAWFVYWGQGTLVTVSS VL: not shown							13 nM	0.0023 s⁻¹	180000 M⁻¹ s⁻¹	23 nM	0.00092 s⁻¹	40000 M⁻¹ s⁻¹
huAb3v2 (antibody, V domains shown, Humanized, further engineered clone of chAb3, converted to IgG and expressed as a full-length antibody) VH: EVQLVESGGGLVQPGRSLRLSCTTSGFTFIDYYMSWVRQAPGKGLEWLGFIRNKAYGYTTEYSASVKGRFTISRDNSKSILYLQMNSLKTEDTAVYYCTRDRPAWFVYWGQGTLVTVSS VL: not shown							4.9 nM	0.0013 s⁻¹	260000 M⁻¹ s⁻¹	17 nM	0.00049 s⁻¹	29000 M⁻¹ s⁻¹
huAb15v2 (antibody, V domains shown, Humanized, further engineered clone of chAb15, converted to IgG and expressed as a full-length antibody) VH: EVQLVESGGGVVQPGRSLRLSCAASGFTFSDYTMAWVRQAPGKGLEWVATIIYSGRGTYYRDAVKGRFTISRDNSKSTLYLQMNSLRAEDTAVYYCARQSDDTYYYWGYFDYWGQGTMVTVSS VL: DIVMTQSPDSLAVSLGERATINCKSSQSLLFSGNQKNYLAWYQQKPGQSPKLLIYWASTRQSGVPDRFSGSGSGTDFTLTIRSLQAEDVAIYYCQQYYDVPYTFGQGTKLEIK							1.1 nM	4.6e-05 s⁻¹	42000 M⁻¹ s⁻¹	2.3 nM	4.8e-05 s⁻¹	21000 M⁻¹ s⁻¹
huAb15v4 (antibody, V domains shown, Humanized, further engineered clone of chAb15, converted to IgG and expressed as a full-length antibody) VH: EVQLVESGGGVVQPGRSLRLSCAASGFTFSDYTMAWVRQAPGKGLEWVATIIYTGRGTYYRDAVKGRFTISRDNSKSTLYLQMNSLRAEDTAVYYCARQSDDTYYYWGYFDYWGQGTMVTVSS VL: DIVMTQSPDSLAVSLGERATINCKSSQSLLFSGNQKNYLAWYQQKPGQSPKLLIYWASTRQSGVPDRFSGSGSGTDFTLTIRSLQAEDVAIYYCQQYYDVPYTFGQGTKLEIK							0.81 nM	2.8e-05 s⁻¹	35000 M⁻¹ s⁻¹	2.6 nM	5e-05 s⁻¹	20000 M⁻¹ s⁻¹
huAb109 (antibody, V domains shown, Framework re-engineered humanized clone (parent huAb15v6), expressed as full-length IgG) VH: EVQLVESGGGLVQPGGSLRLSCAASGFTFSDYTMAWVRQAPGKGLEWVATIIYDARGTYYRDAVKGRFTISRDNAKNTLYLQMNSLRAEDTAVYYCARQSDDTYYYWGYFDYWGQGTMVTVSS VL: DIVMTQTPLSLPVTPGEPASINCKSSQSLLFSGNQKNYLAWYLQKPGQSPQLLIYWASTRQSGVPDRFSGSGSGTDFTLKISRVEAEDVGIYYCQQYYSSPYTFGQGTKLEIK	1.1 nM	0.00017 s⁻¹	160000 M⁻¹ s⁻¹	12 nM	0.00031 s⁻¹	26000 M⁻¹ s⁻¹						
huAb15v1 (antibody, V domains shown, Humanized, further engineered clone of chAb15, converted to IgG and expressed as a full-length antibody) VH: EVQLVESGGGVVQPGRSLRLSCAASGFTFSDYTMAWVRQAPGKGLEWVATIIYSGRGTYYRDAVKGRFTISRDNSKSTLYLQMNSLRAEDTAVYYCARQSDHTYYYWGYFDYWGQGTMVTVSS VL: DIVMTQSPDSLAVSLGERATINCKSSQSLLFSGNQKNYLAWYQQKPGQSPKLLIYWASTRQSGVPDRFSGSGSGTDFTLTIRSLQAEDVAIYYCQQYYDVPYTFGQGTKLEIK							0.43 nM	2.3e-05 s⁻¹	53000 M⁻¹ s⁻¹	1 nM	2.6e-05 s⁻¹	26000 M⁻¹ s⁻¹
huAb15v3 (antibody, V domains shown, Humanized, further engineered clone of chAb15, converted to IgG and expressed as a full-length antibody) VH: EVQLVESGGGVVQPGRSLRLSCAASGFTFSDYTMAWVRQAPGKGLEWVATIIYSGRGTYYRDAVKGRFTISRDNSKSTLYLQMNSLRAEDTAVYYCARQSDDTYYYWGYFDYWGQGTMVTVSS VL: DIVMTQSPDSLAVSLGERATINCKSSQSLLFSGNQKNYLAWYQQKPGQSPKLLIYWASTRQSGVPDRFSGSGSGTDFTLTIRSLQAEDVAIYYCQQYYGSPYTFGQGTKLEIK							2 nM	8.5e-05 s⁻¹	44000 M⁻¹ s⁻¹	7.6 nM	0.00014 s⁻¹	18000 M⁻¹ s⁻¹
huAb105 (antibody, V domains shown, Framework re-engineered humanized clone (parent huAb15v1), expressed as full-length IgG) VH: EVQLVESGGGLVQPGGSLRLSCAASGFTFSDYTMAWVRQAPGKGLEWVATIIYSGRGTYYRDAVKGRFTISRDNAKNTLYLQMNSLRAEDTAVYYCARQSDHTYYYWGYFDYWGQGTMVTVSS VL: DIVMTQTPLSLPVTPGEPASINCKSSQSLLFSGNQKNYLAWYLQKPGQSPQLLIYWASTRQSGVPDRFSGSGSGTDFTLKISRVEAEDVGIYYCQQYYDVPYTFGQGTKLEIK	0.17 nM	2.4e-05 s⁻¹	140000 M⁻¹ s⁻¹	1.4 nM	5.3e-05 s⁻¹	38000 M⁻¹ s⁻¹						
